Assay results taken from the supplement of paper PMC9170038.

Tested on: MS2 coat protein
Experiment: apparent KD of MS2 coat protein; designed switch direction (-1 OFF switch, 1 ON switch): 1; higher = weaker reporter binding
Outline: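 The buffer was Tris-HCl pH 7.5 with KCl, MgCl2, BSA, DTT, tRNA and Tween-20. In it, SNAP-549-labelled MS2 coat protein was titrated in doubling steps from 0.7 or 1.5 nM to 3 µM over chip-bound RNA switches transcribed by stalled E. coli RNA polymerase on Illumina chips. Apparent KD is the per-design median over clusters of curve fits to normalised fluorescence.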

[1] = input ligand: microRNA oligo, concentration not stated
[2] = Eterna round: R95, input ligand: FMN 200 uM
[3] = Eterna round: R95, input ligand: microRNA oligo, concentration not stated
[4] = Eterna round: R95, input ligand: none

Sequence | apparent KD of MS2 coat protein (input ligand: FMN 200 uM) [nM] | apparent KD of MS2 coat protein [1] [nM] | apparent KD of MS2 coat protein (input ligand: none) [nM] | apparent KD of MS2 coat protein [2] [nM] | apparent KD of MS2 coat protein [3] [nM] | apparent KD of MS2 coat protein [4] [nM]
GGUAGGUUACUACCAAACAUGAGGAUCACCCAUGUAAAUGGGAAGGAUAUGGUACCUAUUUGGUACCAGAAGGUCCAAAUAAUU [Mat - Same State NG 3 - JL Mod - D95] (Eterna round: R96, puzzle: Same State NG 3) | 180 | 327 | 1410 |  |  | 
GUUACAUGAGGAUCACCCAUGUAUGUGUGGGAGUAAGUGUCUUAGGAUAUCUAUGAUUUAAUUGAAGAGAAGGAAGAUUGUUGU [JMF's solution 84] (Eterna round: R96, puzzle: Same State NG 3) |  | 99.1 |  |  |  | 
AUAAAACAUGAGGAUCACCCAUGUCAACAAAGUCGAGGAUAUGGGCAAAUAAAAUAAGAACCAGAAGGCGAAUAAG [salish99_SS1_r3_004] (puzzle: Same State 1) |  |  |  | 30.7 | 88 | 266
AGUCCAGCCUGAGCUGGACAAAAGCAUGUACAUGAGGAUCACCCAUGUCAUGUAUAAGCUUUUUGCUCGUCUUAAAA [Zipper 46 - 10] (puzzle: Sensor for hsa-mir-208a) |  |  |  | 18.9 | 9.63 | 20.1
CAAGCUUGGGUCGUCCCGCUCGUCUUCAAACAUGAGGAUCACCCAUGUAUACUCUUCACAUCAAUUCUAUCUCUUAA [Ralasoerin] (puzzle: Sensor for hsa-mir-208a) |  |  |  | 255 | 22.8 | 289
UGCUUCGUGUGAGGAUAUGCUGCCGUUUCGGCUGCAGAAGGUACUAUAAUACAUGAGGAUCACCCAUGUCUGUCGGUUUGCGGG [salish99_SSng1_r04_305-lowA] (Eterna round: R96, puzzle: Same State NG 1) | 46.4 | 28.8 | 49.3 |  |  | 
UCUUGGUUUUUGCUCGUUUUUUGUGUUGAACAUGAGGAUCACCCAUGUAUUGUACGGUCCAAUUUAAUAAUAGUCCA [JMF 75] (puzzle: Sensor for hsa-mir-208a) |  |  |  | 62.3 | 52.8 | 75.5
CUGUGUUGCGGGCAGGAUAUGUACUUGAGUACAUGAGGAUCACCCAUGUGCGGGUGUUUCACCCGACAGAAGGGCCUAUCGCGAC [JL-ss2-3.24 ViennaUCT mod] (puzzle: Same State 2) |  |  |  | 140 | 395 | 329
GCCGCACAUGAGGAUCACCCAUGUAAUUACAUGGGAGGAUAUCAGUGCUCGAAAGAGCACUGAGAAGGCCUAAGGC [SS1 - Omei A] (puzzle: Same State 1) |  |  |  | 419 | 32.4 | 20.8
GCCGCGUUUCGCGCCUACAUGAGGAUCACCCAUGUUUGUAGGCAGGAUAUCGUCCGCUCUGCGGGCGAGAAGGGCUGUUGUGGC [salish99_SSNG3_R04_022] (Eterna round: R96, puzzle: Same State NG 3) | 41.2 | 36.7 | 51.5 |  |  | 
AAGAGGUCCGCAGGAUAUACCCGGCCUCGCCGGGUAGAAGGGUGAACCUCAUAACCCACCACACACAUGAGGAUCACCCAUGUA [Enisaon] (Eterna round: R96, puzzle: Same State NG 1) | 494 | 1.93 | 111 |  |  | 
GGUAGGUUACUACCAAUACAUGAGGAUCACCCAUGUUGUCAUGAGGAUAUGGUACCUAUUUGGUACCAGAAGGCAUGUAUAAUU [Fiskers NG3ss - 20] (Eterna round: R96, puzzle: Same State NG 3) | 49.6 | 59.5 | 62 |  |  | 
AGAGGAGGAGCAGGAUAUGCGAAGAAGAAAGAGGUAGAAGGGCUCAUGGGAUGACAUGAGGAUCACCCAUGUACCGCCCGAGGA [AK SSNG1-V2-8.1] (Eterna round: R96, puzzle: Same State NG 1) | 11.5 | 46.4 | 297 |  |  | 
UACAAUCUAUCUGAGGAUAUCAUGAAGAAAACAUGAGGAUCACCCAUGUGCAGGAGAACUGCAAAUGAGAAGGCAGAUAGAUUGU [Mat - Same State 2 - Mod - D1] (puzzle: Same State 2) |  |  |  | 9.46 | 12.9 | 13.4
UUAAUUUAUUGAGGAUAUUAUGUCGACUGAGUUGACAUGAGGAUCACCCAUGUGAGAAGUGGUAUUAAGAAGGCAAUAUUCAUA [JR_SSNG2_Sub087] (Eterna round: R96, puzzle: Same State NG 2) | 39.8 | 118 | 115 |  |  | 
GGAGAAUAACUAGAGGAUAUCCGAGUGGUAACAUGAGGAUCACCCAUGUGAUGAAAGGAACAUGAGGAGAAGGCUAGAAUGAAGG [Mat - Same State 2 - Mod of JL - D85] (puzzle: Same State 2) |  |  |  | 37.3 | 34.9 | 77.6
UAUUUAAUCAUAGGAUAUAGUGUGAAAUUUGGACUAGAAGGAUGUAACAUGAGGAUCACCCAUGUGGUAAGUGGGACACAUUGA [JR_SSNG1_Sub097] (Eterna round: R96, puzzle: Same State NG 1) |  | 86.7 |  |  |  | 
GACUGCGUUAUGAAGGAUAUCCGCGUCUGGACAUGAGGAUCACCCAUGUAUACUUGGAUCGUGCAGGAGAAGGUCAAGGGUGAUU [JR_SS002_Sub1210] (Eterna round: R96, puzzle: Same State 2) | 507 | 163 | 243 |  |  | 
CAAGUACAUGAGGAUCACCCAUGUGGAAGAGAUGCAGGAUAUGUGGGAGAAGGGAGUGUAACAGAAGGGCAAGGAG [JR_SS!_Sub019] (puzzle: Same State 1) |  |  |  | 113 | 71.8 | 109
GAAUUUGAACUACAGGAUAUAUAGCAGAUGACAUGAGGAUCACCCAUGUAAGAGAAAGGAGGGAAAUAGAAGGGUAUGGGAGGUG [JR_SS2_Sub034] (puzzle: Same State 2) |  |  |  | 34.5 | 32.9 | 37.7
CCAACAUACAAUUUAAGAUCACAUGAGGAUCACCCAUGUAUGCAGGAUAUCAGCUCGUUUAGAGCUGAGAAGGGCAAUUUAAUU [SSNG3/1-A3] (Eterna round: R96, puzzle: Same State NG 3) | 99 | 158 | 202 |  |  | 
GGUCCAGCCUGAGCUGGACAAAAGCAUGUACAUGAGGAUCACCCAUGUUCAUGUACAAGCUUUUUGCUCGUCUUAGG [salish99_208a_r3_070] (puzzle: Sensor for hsa-mir-208a) |  |  |  | 602 | 19.8 | 401
CUGAGCAAGCAAGGAUAUCACGUCGAAUAGACGUGAGAAGGUGCUCCUUACAUGAGGAUCACCCAUGUAUAACAUGAAGCUCAG [SSNG1/10-A1] (Eterna round: R96, puzzle: Same State NG 1) | 254 | 869 | 1260 |  |  | 
